Values quoted from earlier work as cited in paper PMC11386291.

Tests used:
[1] = molecular target: MKK4 D-motif D-motif (Homo sapiens) (UniProt P45985)
[2] = molecular target: MKK6 D-motif D-motif (Homo sapiens) (UniProt P52564)

Kd [1] | Kd [2] | Substance
3.5 µM | – | JNK1 (from UniProt P45983)
– | 7.5 µM | p38α (from UniProt Q16539)
